Results on 2 molecules are retold here after PMC3544819, “Pax6 Interactions with Chromatin and Identification of Its Novel Direct Target Genes in Lens and Forebrain”.

The target in this data set is Pax6 PD/HD (UniProt P63015 4-269). The data set is described as follows: EMSA; not given in the material. To be noted: protein: recombinant; blunt. On the technique in general: In EMSA bound probe runs differently from free probe, usually more slowly.
Sequence of Pax6 PD/HD (P63015 4-269): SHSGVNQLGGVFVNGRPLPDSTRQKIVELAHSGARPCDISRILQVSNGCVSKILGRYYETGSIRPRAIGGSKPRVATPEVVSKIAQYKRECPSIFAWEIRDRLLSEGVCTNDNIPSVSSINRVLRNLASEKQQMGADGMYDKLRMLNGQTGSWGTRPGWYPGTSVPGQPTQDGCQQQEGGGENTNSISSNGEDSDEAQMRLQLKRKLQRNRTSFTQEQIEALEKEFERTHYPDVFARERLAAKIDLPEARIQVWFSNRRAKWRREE

B1: Kif1b site 1 (dsDNA)
DNA 1: ATGACCAATAGTAAAGCGTGGCTGGAAGAGGGG
DNA 2: CCCCTCTTCCAGCCACGCTTTACTATTGGTCAT
For the molecule B1, the binding result was “binds”.

B2: Kif1b site 2 (dsDNA)
DNA 1: TAGGAAGCTTTCTGCTGGATACACTCATGCCTGAGCGTG
DNA 2: CACGCTCAGGCATGAGTGTATCCAGCAGAAAGCTTCCTA
For the molecule B2, the binding result is “binds”.
